Test: yeast display, Sf9 membrane polyspecificity reagent, FACS + sequencing; frameworks hold sequencing errors
Summary of the method: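 Galactose induction of a Saccharomyces cerevisiae BJ5465 synthetic nanobody display library ran 36–48 hours. The cells were then stained for 1 hour at 4 °C with 10% biotinylated, detergent-solubilized Sf9 membrane reagent, pulled down on streptavidin microbeads and FACS-sorted into low and high (top ~1%) gates on expression and reagent-binding fluorescence. Labels for polyreactivity follow the gate of origin.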

Sequence	polyreactivity (PSR sort gate)
QVQLVESGGGIVQAGGILRLSCAASGRISVFNDMGWYRQAPGKERELVAAITSGGSTKYADSVKGRFTISRDNAKNTVYLQMNSLKPEDTAVYYCASLYQFHGKIWDGDYWGQGTQVNVSS	low polyreactivity
QVQLVESGGGIVQAGGILRLSCAASGRNLHGYTMGWYRQAPGKERELVATISSIGGSTYYADSVKGRFTISRDNAKNTVYLQMNSLKPEDTAVYYCAATRGRRYQSYYWGQGTQVTVSS	low polyreactivity
QVQLVESGGGIVQAGGILRLSSAASGRTFYSYTMGWSRQEPGKERELVAAINRGGSTYYADSVKGRFTISRDKAKNTVYLQMNSLKPEDTEVYYCAVGYAHSSNRRYYYKKTHGYWGQGTQVTVSS	low polyreactivity
QVQLVESGGGIVQAGGRLRLSCAASGFPSTLMLWDGIDRRLGKKGSWLPIISYNGGSTYYADSVKGRFTISRDNANNTVYLQMNSLKPVDTAVYYCYTAVGEYESDYWGQGTQVTVSS	low polyreactivity
QVQLVESGGGIVQAGGRLRLSCAASGSIFYYYAKGWYRQAPGTERELVASINSGVSTYYADSVKGRFTNSRDNAKNTVYLQMNSLKPVDTAVYYCAAPGHNLYGSWFSWTPDTYDYWGQGNQVTVSS	low polyreactivity
QVQLVESGGGIVQAGGSIRLSCAASGYTFAKYAMGWYRQAPGKERELVAAITFSDTSTYYADSVKGRFTISRDNAKNTVYLQMNSLKPEDTAVYYCAVVGPYYSRFGGRYYYWGQGTQVTVSS	low polyreactivity
QVQLVESGGGIVQAGGSLRLISAASGRTYKSYTIGWYRQAPGKEREFVAAISSRGGNTYYADSVKGRFTISRDNAKNTVYLQMNSLKPEDTAVYYCAARYGYSYDRRDYWGQGTQVTVSS	high polyreactivity
QVQLVESGGGIVQAGGSLRLRCAASGFTFSRNAMVWYRQAPGKERELVAAITWSGGRTYYADSVKGRFTISRDNAKNTVYLQMNSLKPEDTAVYYCAARKYHLRSAYDYWGQGTKVTVSS	low polyreactivity
QVQLVESGGGIVQAGGSLRLSCAASGFIFGSYAMGWYRQAPGKERELVAAINSVDRTYYADSVKGRFTISRDNAKNTVYLQMNSLKPEDTAVYYCAATIAPTPGYIIYDYWGQGTQVTVSS	high polyreactivity
QVQLVESGGGIVQAGGSLRLSCAASGFIFVANAMGRYRQAPGKERQLVAAISGSGGSTFYADSVKGRFTISRDNAKNTVNLQMNSLKPEDTAGYYCNADAYDYSGYFEYDCWGQGTQETVSS	high polyreactivity
QVQLVESGGGIVQAGGSLRLSCAASGFIFYRYAMGWYRQAPGKERELVAAITGSGARTYYADSVKGRFTISRDNAKNTVYLQMNSLKPEDTAVYYCNARGYRGYDYWGQGTQVTVSS	high polyreactivity
QVQLVESGGGIVQAGGSLRLSCAASGFIFYWNAMGRYRQAPGKERELVAGITSGGDTNYADSVKGRFTISRDNAKITVYLQMNSLKPEDTAVYYCAAEGFRGYGYWGQGTQVTVSS	low polyreactivity
QVQLVESGGGIVQAGGSLRLSCAASGFIISYNAMVWYRQAPGKERELVAAISSRGGSTYYADSVKGRFTISRDNAKNTVYLQMNSLKPEDTAVYYCAVASRRVYTAPYDYWGQGTQVSVSS	high polyreactivity
QVQLVESGGGIVQAGGSLRLSCAASGFISYRNAMGWDRMAPGKERELVASITSSGGRTYYADSVKGRFTISRDNAKNTVYLQMNSLKPEDTAVYDWAADNWYKKQKRPSAYDYWGQGTQVSVSS	high polyreactivity
QVQLVESGGGIVQAGGSLRLSCAASGFNFLRYAMGWYRQAPGKERELVAAISTSGGSTSYADSVKGRFTISRDNAKNTVYLQMNSLNPEDTAVYYCNAVLYKVSISEYDYWGQGTQVTVSS	high polyreactivity
QVQLVESGGGIVQAGGSLRLSCAASGFTFEKNAMGWYRQAPGKERELVAAISRGGSTYADSVKGRFRISRDNAKNTVYLQMNSLKPEDTAVYYCAADTVYIFSSAINGEFGYWGQGTQVTVSS	low polyreactivity
QVQLVESGGGIVQAGGSLRLSCAASGFTFEYYAMGWYRQAPGKERELVADITSGGTYYADSVKGRFTISRDNAKNTVYLQMNSLKPEDTAVYYCAADFGQPYTYYAKENYWGQGTQVTVSS	low polyreactivity
QVQLVESGGGIVQAGGSLRLSCAASGFTFTHYAMGWYRQAPGKERELVAAISPSGGSTYYADSVKGRFTISRDNAKNTVYLQMNSLKTEDTAVFYFAARRDGWVQWGYYYWGQGTEVTVSS	low polyreactivity
QVQLVESGGGIVQAGGSLRLSCAASGFTISRYAMGWDRPAPGKERELVAAITGSGGSTYYADSVKGRFTISRDIAKNTVYLQMNSLKPEDTAVYYCNTMKHYKREYDYWGQGSQVTVSS	high polyreactivity
QVQLVESGGGIVQAGGSLRLSCAASGGTFPWYTMVWYRQAPGKERELVATIRGRDGSTFYADSVKGRFTISRDNAKNTVYLQMNSLIPEVTAVYYCAAVGRRKDLRWGVYYRFDYWGQGTQVTVSS	low polyreactivity
QVQLVESGGGIVQAGGSLRLSCAASGIIFPLYAMGWYRPAPGKERELVAAIRSTGGSTYYADSVKGRFTISRDNANNTVYLQMNSLKPEDTAVYYCNARQNRRQGNVGYWGQGTQVTVSS	low polyreactivity
QVQLVESGGGIVQAGGSLRLSCAASGIIFPYYAMGWYRQAPGKVRELVAAISSSGGSTHYADSVKGRFTISRDTAKNTVYLQMHSLKPEDTAVYYCAARDINRYPKAQPTDRSIYYWRQGTQVTVSS	high polyreactivity
QVQLVESGGGIVQAGGSLRLSCAASGIIIFYKAMGWDRQAPGKERELVATISRRGGSTYYADSVKGRFTISRDNAKNTVYLQMNSLKPEDTAVYYCARDVGAGSKISRLSSYNYWGQGTQVTVSS	low polyreactivity
QVQLVESGGGIVQAGGSLRLSCAASGITFDGYAMGWYRQAPGKERELVAGISWSGARTYYADSVKGRFTISRDNAKNTVYLLMNSLKPEDTALYYCNKVSLRNHGGYDYWGQGNQVTVSS	high polyreactivity
QVQLVESGGGIVQAGGSLRLSCAASGITFFYYAMGWYRQAPGKERELVASISSGGSTYYADSVKGRFTISRDNAKNTVYLQMNSLKPEDTAVYYCAAPTGWYPAYGEYEYWGQGTQVTVSS	low polyreactivity
QVQLVESGGGIVQAGGSLRLSCAASGITFPANAMGWYRQAPGKERELVADISESDGSTYYADSVKGRFTISRDNAKNTVYLQMNSLKPEDTAVYYCAADGTSGTRSDYWGQGTQVTVSS	low polyreactivity
QVQLVESGGGIVQAGGSLRLSCAASGITFPFYTMGWYRQAPGKERELVADISSRGTSTYYADSVKGRFTISRDNAKYTVYLQMNSLNPEDTAVYYCKARATPQRAYDSWGQGTLVTVSS	high polyreactivity
QVQLVESGGGIVQAGGSLRLSCAASGLTFPQYAMGWYTQAPGKERELVAAISWNGGITYYADSVKGRFTISRDYAKNTVYLQMNSLKPEDTAVYYCNDDGGYGDYYYWGQGTQVTVSS	low polyreactivity
QVQLVESGGGIVQAGGSLRLSCAASGLTFRKYAMGWYRQAPGKERELVAAIRFRGGSTYYADSVKGRFTISRDNAKNTVYLQMNSLKPEDTAVYYCNTAPVGLLYGRYDYWGEGTQVTVSS	high polyreactivity
QVQLVESGGGIVQAGGSLRLSCAASGRIFAWNAMGWYRQAPGKERELVAYADSVKGRFTISRDNAKNTVYLQMHSLNPEDSAVYYCAKVVTPYVPGDSYWYDYWGQGTQVTVSS	low polyreactivity

Reference: the nanobody polyreactivity screen of Harvey et al. (2022)
